US20200317768A1 (published 2020)
Where a chain is given by its changes, count along the chain named. Numbers in names are those of the source.

T1: human FcγRIIaH extracellular domain with C-terminal His-tag (human, UniProt P12318 34-217)
T1 construct: Expressed in FreeStyle 293 cells and purified; also called human FcγRIIa (type H); FcgRIIaH; not shown: C-terminal His-tag
T1 sequence: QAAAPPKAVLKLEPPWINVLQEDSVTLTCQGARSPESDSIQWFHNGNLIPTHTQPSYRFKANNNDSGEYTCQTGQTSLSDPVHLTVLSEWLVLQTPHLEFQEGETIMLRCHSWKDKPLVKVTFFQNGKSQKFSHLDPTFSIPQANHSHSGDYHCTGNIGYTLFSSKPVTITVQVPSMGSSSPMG

T2: human FcγRIIb extracellular domain with C-terminal His-tag (human, UniProt P31994 43-217)
T2 construct: Expressed in FreeStyle 293 cells and purified; also called humanFcgRIIb; not shown: C-terminal His-tag
T2 sequence: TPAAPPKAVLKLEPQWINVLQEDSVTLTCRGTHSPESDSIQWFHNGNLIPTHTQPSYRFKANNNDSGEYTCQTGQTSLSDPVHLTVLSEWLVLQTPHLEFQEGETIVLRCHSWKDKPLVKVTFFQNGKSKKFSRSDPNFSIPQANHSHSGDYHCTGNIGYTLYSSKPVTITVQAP

T3: cynomolgus monkey FcγRIIa1 extracellular domain, His-tagged (cynomolgus monkey)
T3 construct: also called cyno FcgRIIa1; cynoFcγRIIa1; not shown: His-tag added to the C-terminus
T3 chain: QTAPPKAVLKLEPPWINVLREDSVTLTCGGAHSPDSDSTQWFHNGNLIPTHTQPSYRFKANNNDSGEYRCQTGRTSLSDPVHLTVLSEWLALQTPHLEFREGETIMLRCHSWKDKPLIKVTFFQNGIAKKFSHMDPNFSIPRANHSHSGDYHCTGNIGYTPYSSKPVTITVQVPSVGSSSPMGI

T4: cynomolgus monkey FcγRIIa3 extracellular domain, His-tagged (cynomolgus monkey)
T4 construct: also called cyno FcgRIIa3; cynoFcγRIIa3; not shown: His-tag added to the C-terminus
T4 chain: T3 chain with P95T, T121A, A128S, H133P, D135N

T5: cynomolgus monkey FcγRIIb extracellular domain, His-tagged (cynomolgus monkey)
T5 construct: also called cyno FcgRIIb; cynoFcγRIIb; not shown: His-tag added to the C-terminus
T5 chain: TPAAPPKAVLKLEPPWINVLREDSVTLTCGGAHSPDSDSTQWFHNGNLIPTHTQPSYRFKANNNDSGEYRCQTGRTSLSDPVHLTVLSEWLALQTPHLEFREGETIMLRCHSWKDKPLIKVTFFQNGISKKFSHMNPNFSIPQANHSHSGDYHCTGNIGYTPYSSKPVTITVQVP

T6: human FcγRIIaH extracellular domain, His-tagged (human, UniProt P12318 34-217)
T6 construct: also called human FcgRIIaH; FcγRIIa (type H); not shown: His-tag added to the C-terminus
T6 sequence: T1 sequence

T7: human FcγRIIb extracellular domain, His-tagged (human, UniProt P31994 43-217)
T7 construct: also called human FcgRIIb; not shown: His-tag added to the C-terminus
T7 sequence: T2 sequence

B1: MS_M103205H795-SG1/M103202L889-SK1 (antibody, human IgG1, kappa)
heavy: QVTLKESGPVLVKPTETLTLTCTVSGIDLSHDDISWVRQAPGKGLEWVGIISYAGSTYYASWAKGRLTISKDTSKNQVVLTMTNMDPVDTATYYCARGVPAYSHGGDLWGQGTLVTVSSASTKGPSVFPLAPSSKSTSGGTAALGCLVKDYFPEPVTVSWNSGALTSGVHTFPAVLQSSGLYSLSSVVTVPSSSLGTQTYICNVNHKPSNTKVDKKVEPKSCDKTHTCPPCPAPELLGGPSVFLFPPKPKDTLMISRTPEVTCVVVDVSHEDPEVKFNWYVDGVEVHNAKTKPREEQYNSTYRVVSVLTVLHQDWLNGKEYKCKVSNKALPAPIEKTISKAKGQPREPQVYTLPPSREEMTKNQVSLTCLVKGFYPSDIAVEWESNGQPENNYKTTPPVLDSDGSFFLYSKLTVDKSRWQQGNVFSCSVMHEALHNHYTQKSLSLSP
light: DIVMTQSPATLSLSPGERATLSCTSSQSVYHANWLSWFQQKPGQPPKLLIYWASTLAYGVPSRFSGSGSGTDFTLTISSLQPEDAATYYCAGGYGGGRYAFGQGTKVEIKRTVAAPSVFIFPPSDEQLKSGTASVVCLLNNFYPREAKVQWKVDNALQSGNSQESVTEQDSKDSTYSLSSTLTLSKADYEKHKVYACEVTHQGLSSPVTKSFNRGEC
notes: Anti-latent myostatin IgG; also called MS1032LO06-SG1
B2: MS1032LO06-SG1 (M103205H795-SG1/M103202L889-SK1) (antibody, human IgG1, kappa)
heavy: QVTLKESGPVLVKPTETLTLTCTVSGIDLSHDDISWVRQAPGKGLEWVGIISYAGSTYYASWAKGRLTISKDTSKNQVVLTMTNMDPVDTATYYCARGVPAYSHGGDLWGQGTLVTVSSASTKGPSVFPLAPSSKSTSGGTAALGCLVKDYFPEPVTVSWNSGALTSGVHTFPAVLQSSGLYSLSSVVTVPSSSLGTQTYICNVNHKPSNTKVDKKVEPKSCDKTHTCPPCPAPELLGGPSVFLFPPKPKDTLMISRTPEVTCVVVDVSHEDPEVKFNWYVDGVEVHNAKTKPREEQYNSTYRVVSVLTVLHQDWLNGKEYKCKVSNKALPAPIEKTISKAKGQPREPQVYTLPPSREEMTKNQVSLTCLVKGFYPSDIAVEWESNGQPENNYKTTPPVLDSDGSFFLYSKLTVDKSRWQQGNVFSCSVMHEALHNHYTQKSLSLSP
light: B1 light
notes: Anti-latent myostatin antibody; Parent of the Fc variants; copies: 2 + 2
B3: M103205H795-MY201/M103202L889-SK1 (antibody, human IgG1, kappa)
heavy: QVTLKESGPVLVKPTETLTLTCTVSGIDLSHDDISWVRQAPGKGLEWVGIISYAGSTYYASWAKGRLTISKDTSKNQVVLTMTNMDPVDTATYYCARGVPAYSHGGDLWGQGTLVTVSSASTKGPSVFPLAPSSKSTSGGTAALGCLVKDYFPEPVTVSWNSGALTSGVHTFPAVLQSSGLYSLSSVVTVPSSSLGTQTYICNVNHKPSNTKVDKKVEPKSCDKTHTCPPCPAPELLNGPSVFLFPPKPKDTLMISRTPEVTCVVVDVSDEDPEVKFNWYVDGVEVHNAKTKPREEQYNSTYRVVSVLTVLHQDWLNGKEYKCKVSNKALPKPIEKTISKAKGQPREPQVYTLPPSREEMTKNQVSLTCLVKGFYPSDIAVEWESNGQPENNYKTTPPVLDSDGSFFLYSKLTVDKSRWQQGNVFSCSVMHEALHNHYTQKSLSLSP
light: B1 light
notes: Fc variant G236N/H268D/A330K (EU numbering) of SG1; also called MS1032LO06-MY201; copies: 2 + 2
B4: M103205H795-MY170 / M103202L889-SK1 (antibody, human IgG1, kappa)
heavy: B3 heavy with D270E, K332A, P398E
light: B1 light
notes: Position 396 variant derived from MY052, expressed with M103202L889-SK1 as light chain
B5: M103205H795-MY262/M103202L889-SK1 (antibody, human IgG1, kappa)
heavy: B3 heavy with N238V
light: B1 light
notes: copies: 2 + 2
B6: M103205H795-MY168 / M103202L889-SK1 (antibody, human IgG1, kappa)
heavy: B3 heavy with D270E, K332A, P398A
light: B1 light
notes: as for B4
B7: M103205H795-MY169 / M103202L889-SK1 (antibody, human IgG1, kappa)
heavy: B3 heavy with D270E, K332A, P398D
light: B1 light
notes: as for B4
B8: M103205H795-MY052 / M103202L889-SK1 (antibody, human IgG1, kappa)
heavy: B3 heavy with D270E, K332A, P398M
light: B1 light
notes: Fc variant of M103205H795-SG1, expressed with M103202L889-SK1 as light chain; parent of the position 396 variants
B9: M103205H795-MY171 / M103202L889-SK1 (antibody, human IgG1, kappa)
heavy: B3 heavy with D270E, K332A, P398F
light: B1 light
notes: as for B4
B10: M103205H795-MY260/M103202L889-SK1 (antibody, human IgG1, kappa)
heavy: B3 heavy with N238M
light: B1 light
notes: copies: 2 + 2
B11: M103205H795-MY263/M103202L889-SK1 (antibody, human IgG1, kappa)
heavy: B3 heavy with N238Q
light: B1 light
notes: copies: 2 + 2
B12: M103205H795-MY264/M103202L889-SK1 (antibody, human IgG1, kappa)
heavy: B3 heavy with N238L
light: B1 light
notes: copies: 2 + 2
B13: M103205H795-MY265/M103202L889-SK1 (antibody, human IgG1, kappa)
heavy: B3 heavy with N238T
light: B1 light
notes: copies: 2 + 2
B14: M103205H795-MY261/M103202L889-SK1 (antibody, human IgG1, kappa)
heavy: B3 heavy with N238H
light: B1 light
notes: copies: 2 + 2

Columns and labels:
[1] = molecular target: T1, human FcγRIIaH extracellular domain …; experiment: SPR (Biacore), antibody captured on chip, FcgR extracellular domain as analyte, 25 C
Procedure: (§1) The kinetic analysis of interactions between these antibodies and FcγR was carried out using BIACORE® T200 or BIACORE® 4000 (GE Healthcare). HBS-EP+ (GE Healthcare) was used as the running buffer, and the measurement temperature was set to 25° C. A chip produced by immobilizing Protein A. Protein A/G or mouse anti-human IgG kappa light chain (BD Biosciences) onto a Series S Sensor Chip CM4 or CM5 (GE Healthcare) by the amine-coupling method was used. […] After the measurement, the antibody captured on the chip was washed off by allowing reaction with 10 mM glycine-HCl, pH1.5 and 25 mM NaOH so that the chip was regenerated and used repeatedly. The sensorgrams obtained as measurement results were analyzed by the 1:1 Langmuir binding model using the BIACORE® Evaluation Software to calculate the binding rate constant ka (L/mol/s) and dissociation rate constant kd (l/s), and the dissociation constant KD (mol/L) was calculated from these values. […] Regarding such interactions, KD values were calculated using the following 1:1 binding model described in BIACORE® T100 Software Handbook BR1006-48 Edition AE.
(§2) The resultant variants were expressed using M103202L889-SK1 as light chain and their affinity to human and cynoFcγRs were evaluated (Table 20).

[2] = molecular target: T2, human FcγRIIb extracellular domain with …; experiment: as above
Procedure: as §1, §2

[3] = molecular target: T3, cynomolgus monkey FcγRIIa1 …; experiment: SPR (BIACORE), antibody captured, FcγR as analyte, 25°C
Procedure: as §1
(§3) The behavior of interacting molecules according to the 1:1 binding model on BIACORE® can be described by Equation 1: Req=C·R max/(KD+C)+RI, wherein, Req is a plot of steady-state binding levels to analyte concentration. C is concentration, RI is bulk refractive index contribution in the sample, and Rmax is analyte binding capacity of the surface. When this equation is rearranged, KD can be expressed as Equation 2: KD=C·Rmax/(Req−RI)−C. KD can be calculated by substituting the values of Rmax, RI, and C into Equation 1 or Equation 2. From the current measurement conditions, RI=0, C=2 μmol/L can be used.

[4] = molecular target: T4, cynomolgus monkey FcγRIIa3 …; experiment: as above
Procedure: as §1, §3

[5] = molecular target: T5, cynomolgus monkey FcγRIIb extracellular …; experiment: as above
Procedure: as §1, §3

[6] = molecular target: T8, cynomolgus monkey FcγRIIIaS extracellular domain, His-tagged (cynomolgus monkey, UniProt A3RFZ7 21-206 (rhesus entry)); experiment: as above
T8 construct: also called cyno FcgRIIIaS; cynoFcγRIIIaS; not shown: His-tag added to the C-terminus
Procedure: as §1, §3

[7] = molecular target: T6, human FcγRIIaH extracellular domain, …; experiment: as above
Procedure: as §1, §3

[8] = molecular target: T7, human FcγRIIb extracellular domain, …; experiment: as above
Procedure: as §1, §3

[9] = molecular target: T9, human FcγRIIIaV extracellular domain, His-tagged (human, UniProt P08637 17-208); experiment: as above
T9 construct: also called human FcgRIIIaV; not shown: His-tag added to the C-terminus
T9 sequence (P08637 17-208 F176V): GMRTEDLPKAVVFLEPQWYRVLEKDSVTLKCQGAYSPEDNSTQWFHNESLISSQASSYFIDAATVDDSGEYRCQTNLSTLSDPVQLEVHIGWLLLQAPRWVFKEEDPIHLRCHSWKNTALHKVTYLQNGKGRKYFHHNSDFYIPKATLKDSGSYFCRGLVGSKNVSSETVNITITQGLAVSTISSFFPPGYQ
Procedure: as §1, §3

| Binder | Kd [1] | Kd [2] | Kd [3] | Kd [4] | Kd [5] | Kd [6] | Kd [7] | Kd [8] | Kd [9] |
| --- | --- | --- | --- | --- | --- | --- | --- | --- | --- |
| B1 | 0.69 µM | 4.6 µM | – | – | – | – | – | – | – |
| B2 | – | – | 3.2 µM | 17 µM | 1.8 µM | 0.36 µM | 0.69 µM | 4.6 µM | 0.81 µM |
| B3 | – | – | 1.4 µM | 3.9 µM | 0.43 µM | 5.7 µM | 0.91 µM | 1.1 µM | 24 µM |
| B4 | 1.7 µM | 1.6 µM | – | – | – | – | – | – | – |
| B5 | – | – | 1.9 µM | 8 µM | 0.56 µM | 2.8 µM | 0.14 µM | 6 µM | 5 µM |
| B6 | 1.6 µM | 1.7 µM | – | – | – | – | – | – | – |
| B7 | 1.2 µM | 1.3 µM | – | – | – | – | – | – | – |
| B8 | 0.83 µM | 0.72 µM | – | – | – | – | – | – | – |
| B9 | 1.2 µM | 12 µM | – | – | – | – | – | – | – |
| B10 | – | – | 4.5 µM | 14 µM | 1.6 µM | 0.65 µM | 0.91 µM | 6.1 µM | 3 µM |
| B11 | – | – | 3.2 µM | 7.3 µM | 1 µM | 0.78 µM | 0.32 µM | 3.5 µM | 2.3 µM |
| B12 | – | – | 5.6 µM | 16 µM | 2.8 µM | 3.7 µM | 1.5 µM | 12 µM | 64 µM |
| B13 | – | – | 2.2 µM | 4.8 µM | 0.59 µM | 2 µM | 0.21 µM | 2.2 µM | 54 µM |
| B14 | – | – | 3.7 µM | 6.5 µM | 1.5 µM | 0.074 µM | 0.24 µM | 5.3 µM | 11 µM |
